Assay results reported in paper PMC10467038 (Science translational medicine, 2023).

Legend:
[1] = target: complement C1q (purified) (UniProt P02745 23-245; P02746 28-253; P02747 29-245); experiment: ELISA
[2] = target: the molecule itself; experiment: negative staining electron microscopy

complement C1q (purified), sequence (P02745 23-245, chain 1 of 3): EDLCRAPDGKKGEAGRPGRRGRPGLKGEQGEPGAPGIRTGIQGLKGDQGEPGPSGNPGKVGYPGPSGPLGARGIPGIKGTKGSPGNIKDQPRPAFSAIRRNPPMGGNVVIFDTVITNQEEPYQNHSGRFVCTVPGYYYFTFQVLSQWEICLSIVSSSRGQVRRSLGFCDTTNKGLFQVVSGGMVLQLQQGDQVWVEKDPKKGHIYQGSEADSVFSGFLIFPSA
complement C1q (purified), sequence (P02746 28-253, chain 2 of 3): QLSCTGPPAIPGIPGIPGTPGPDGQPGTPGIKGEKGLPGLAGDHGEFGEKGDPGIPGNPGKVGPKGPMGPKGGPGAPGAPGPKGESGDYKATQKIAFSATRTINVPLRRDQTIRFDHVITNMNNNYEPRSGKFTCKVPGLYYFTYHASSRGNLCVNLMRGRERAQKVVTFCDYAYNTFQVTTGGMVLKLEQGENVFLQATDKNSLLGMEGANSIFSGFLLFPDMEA
complement C1q (purified), sequence (P02747 29-245, chain 3 of 3): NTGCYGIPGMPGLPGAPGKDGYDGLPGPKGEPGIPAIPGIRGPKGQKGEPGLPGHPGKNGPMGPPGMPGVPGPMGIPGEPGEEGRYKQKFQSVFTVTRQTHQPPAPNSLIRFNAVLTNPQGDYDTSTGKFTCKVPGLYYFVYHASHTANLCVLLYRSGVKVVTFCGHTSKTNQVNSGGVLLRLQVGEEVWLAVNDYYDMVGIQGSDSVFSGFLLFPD

Kd [1] [nM] | Binder | stoichiometry N [2]
~2 | Nptxr/Nptx2 coexpressed on a stable doxycycline-inducible CHO cell line (complex) chain 1: MKFLAVLLAAGMLAFLGAVICIIASVPLAASPARALPGGADNASVASGAAASPGPQRSLSALHGAGGSAGPPALPGAPAASAHPLPPGPLFSRFLCTPLAAACPSGAQQGDAAGAAPGEREELLLLQSTAEQLRQTALQQEARIRADQDTIRELTGKLGRCESGLPRGLQGAGPRRDTMADGPWDSPALILELEDAVRALRDRIDRLEQELPARVNLSAAPAPVSAVPTGLHSKMDQLEGQLLAQVLALEKERVALSHSSRRQRQEVEKELDVLQGRVAELEHGSSAYSPPDAFKISIPIRNNYMYARVRKALPELYAFTACMWLRSRSSGTGQGTPFSYSVPGQANEIVLLEAGHEPMELLINDKVAQLPLSLKDNGWHHICIAWTTRDGLWSAYQDGELQGSGENLAAWHPIKPHGILILGQEQDTLGGRFDATQAFVGDIAQFNLWDHALTPAQVLGIANCTAPLLGNVLPWEDKLVEAFGGATKAAFDVCKGRAKA chain 2: GAQDSPAPGSRFVCTALPPEAVHAGCPLPAMPMQGGAQSPEEELRAAVLQLRETVVQQKETLGAQREAIRELTGKLARCEGLAGGKARGAGATGKDTMGDLPRDPGHVVEQLSRSLQTLKDRLESLEHQLRANVSNAGLPGDFREVLQQRLGELERQLLRKVAELEDEKSLLHNETSAHRQKTESTLNALLQRVTELERGNSAFKSPDAFKVSLPLRTNYLYGKIKKTLPELYAFTICLWLRSSASPGIGTPFSYAVPGQANEIVLIEWGNNPIELLINDKVAQLPLFVSDGKWHHICVTWTTRDGMWEAFQDGEKLGTGENLAPWHPIKPGGVLILGQEQDTVGGRFDATQAFVGELSQFNIWDRVLRAQEIVNIANCSTNMPGNIIPWVDNNVDVFGGASKWPVETCEERLLDL | 
 | neuronal pentraxin 2 (purified, recombinant) (natural protein, UniProt P47972 16-431, looked up) GAQDSPAPGSRFVCTALPPEAVHAGCPLPAMPMQGGAQSPEEELRAAVLQLRETVVQQKETLGAQREAIRELTGKLARCEGLAGGKARGAGATGKDTMGDLPRDPGHVVEQLSRSLQTLKDRLESLEHQLRANVSNAGLPGDFREVLQQRLGELERQLLRKVAELEDEKSLLHNETSAHRQKTESTLNALLQRVTELERGNSAFKSPDAFKVSLPLRTNYLYGKIKKTLPELYAFTICLWLRSSASPGIGTPFSYAVPGQANEIVLIEWGNNPIELLINDKVAQLPLFVSDGKWHHICVTWTTRDGMWEAFQDGEKLGTGENLAPWHPIKPGGVLILGQEQDTVGGRFDATQAFVGELSQFNIWDRVLRAQEIVNIANCSTNMPGNIIPWVDNNVDVFGGASKWPVETCEERLLDL | 6
